Test [1] has as its target FITC-labeled PDIA6 (mouse) (UniProt Q922R8). Kind of test: MST.
Test [2] deals with His-tagged IRE1α ER luminal domain (IRE1-NLD). Kind of test: SPR. In general terms: Surface plasmon resonance follows binding to a sensor surface in real time, without labels.

Usually Kd stands for a measure of binding affinity in units of concentration. The low end stands for a tighter complex, the high end for a looser complex.

With “His-tagged IRE1α ER luminal domain (IRE1-NLD) (domain or fragment)”, the Kd in test [1] was 20 nM.

B1: PDIA6 isolated from mouse liver microsomal fraction (natural protein)
chain: LYSSSDDVIELTPSNFNREVIQSDGLWLVEFYAPWCGHCQRLTPEWKKAATALKDVVKVGAVNADKHQSLGGQYGVQGFPTIKIFGANKNKPEDYQGGRTGEAIVDAALSALRQLVKDRLGGRSGGYSSGKQGRGDSSSKKDVVELTDDTFDKNVLDSEDVWMVEFYAPWCGHCKNLEPEWAAAATEVKEQTKGKVKLAAVDATVNQVLASRYGIKGFPTIKIFQKGESPVDYDGGRTRSDIVSRALDLFSDNAPPPELLEIINEDIAKKTCEEHQLCVVAVLPHILDTGAAGRNSYLEVLLKLADKYKKKMWGWLWTEAGAQYELENALGIGGFGYPAMAAINARKMKFALLKGSFSEQGINEFLRELSFGRGSTAPVGGGSFPTITPREPWDGKDGELPVEDDIDLSDVELDDLEKDEL
With B1, the Kd in test [2] is 22 nM. This lies in the double-digit nanomolar range.

The values above are taken from PMC4984425.
